Experimental findings from US20220177587A1, “METHODS AND USES OF VARIANT CD80 FUSION PROTEINS AND RELATED CONSTRUCTS” (Alpine Immune Sciences, Inc., priority 2018, published 2022) are described below.

Values joined by “and” are separate entries in the source; they are usually repeats but may differ in a detail not shown here. Identical values can stand only once.

One assay has as its system allogeneic CD4+ T cells. Nature of the assay: Mixed Lymphocyte Reaction (MLR), IFN-gamma. The conditions noted are these: Table E33; culture supernatant. In kind it is cell-based, human. The procedure: Soluble rCD80.Fc bioactivity was tested in a human Mixed Lymphocyte Reaction (MLR). Human primary dendritic cells (DC) were generated by culturing monocytes isolated from PBMC (BenTech Bio, USA) in vitro for 7 days with 500U/ml rIL-4 (R&D Systems, USA) and 250 U/ml rGM-CSF (R&D Systems, USA) in Ex-Vivo 15 media (Lonza, Switzerland). 10,000 matured DC and 100,000 purified allogeneic CD4+ T cells (BenTech Bio, USA) were co-cultured with variant CD80 Fc fusion proteins and controls in 96 well round bottom plates in 200 μl final volume of Ex-Vivo 15 media. On day 5, IFN-gamma secretion in culture supernatants was analyzed using the Human IFN-gamma Duoset ELISA kit (R&D Systems, USA). Optical density was measured by VMax ELISA Microplate Reader (Molecular Devices, USA) and quantitated against titrated rIFN-gamma standard included in the IFN-gamma Duo-set kit (R&D Systems, USA).

The test system of a further assay is human pan T cells. Kind of assay: Anti-CD3 coimmobilization assay, IFN-gamma. The note with it: Table E33; culture supernatant, 3 days. In kind it is cell-based. An outline of the steps:
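IFN-gamma in 3-day culture supernatants, quantified by ELISA, reflects costimulation. Human pan T cells or BC3 clone (100,000/well, Ex-Vivo 15) were placed on wells pre-adsorbed overnight with rCD80.Fc variants (1–80 nM) together with anti-CD3 OKT3 (1 nM or 4 nM), unbound protein removed.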

In another assay the target is CD28 (Homo sapiens, UniProt P10747). Kind of assay: Jurkat/IL2 + K562/OKT3/PD-L1 reporter assay. The format is cell-based. Also on record: host or cells: Jurkat cells expressing an IL-2-luciferase reporter. The conditions noted are these: K562/OKT3/PD-L1 aAPC, 50 nM; for Fold Increase over WT CD80-IgV-Fc / Relative Luciferase Units (RLU), CD80-Fc Conc. 50 nM: Table E7. (In a reporter assay the amount or activity of a reporter protein is the signal.)

B1: K36G/K37Q/M38I/L40M/F59L/E81V/L85R/K89N/A91T/F92P/K93V/R94L/E99G/T130A/N149S (protein)
chain: VIHVTKEVKEVATLSCGHNVSVEELAQTRIYWQKEGQIVMTMMSGDMNIWPEYKNRTILDITNNLSIVILALRPSDEGTYVCVVRKYENDTPVLEHLAGVTLSVKADFPTPSISDFEIPTSNIRRIICSASGGFPEPHLSWLENGEELSAINTTVSQDPETELYAVSSKLDFNMTTNHSFMCLIKYGHLRVNQTFNWNTTKQEHFPDN
Regarding B1, the “MLR IFN-gamma levels” value in the assay with allogeneic CD4+ T cells amounted to 3095 pg/mL. In addition, the “Coimmobilization with anti-CD3 IFN-gamma” value with human pan T cells was found to be 507 pg/mL.

B2: Q33L/E35D/M47L/A71G/F925 (protein)
chain: VIHVTKEVKEVATLSCGHNVSVEELAQTRIYWLKDKKMVLTMMSGDLNIWPEYKNRTIFDITNNLSIVILGLRPSDEGTYECVVLKYEKDASKREHLAEVTLSVKADEPKSSDKTHTCPPCPAPEAEGAPSVFLFPPKPKDTLMISRTPEVTCVVVDVSHEDPEVKFNWYVDGVEVHNAKTKPREEQYNSTYRVVSVLTVLHQDWLNGKEYKCKVSNKALPAPIEKTISKAKGQPREPQVYTLPPSREEMTKNQVSLTCLVKGFYPSDIAVEWESNGQPENNYKTTPPVLDSDGSFFLYSKLTVDKSRWQQGNVFSCSVMHEALHNHYTQKSLSLSPG
As for B2, in the assay with CD28, the “Fold Increase over WT CD80-IgV-Fc” value is reported as 0.7 and the “Relative Luciferase Units (RLU), CD80-Fc Conc. 50 nM” value is on record as 394 RLU.

B3: H18Y/E35DN68M/L97Q (protein)
chain: VIHVTKEVKEVATLSCGYNVSVEELAQTRIYWQKDKKMVLTMMSGDMNIWPEYKNRTIFDITNNLSIMILALRPSDEGTYECVVLKYEKDAFKREHQAEVTLSVKADEPKSSDKTHTCPPCPAPEAEGAPSVFLFPPKPKDTLMISRTPEVTCVVVDVSHEDPEVKFNWYVDGVEVHNAKTKPREEQYNSTYRVVSVLTVLHQDWLNGKEYKCKVSNKALPAPIEKTISKAKGQPREPQVYTLPPSREEMTKNQVSLTCLVKGFYPSDIAVEWESNGQPENNYKTTPPVLDSDGSFFLYSKLTVDKSRWQQGNVFSCSVMHEALHNHYTQKSLSLSPG
Consider B3, for which, in the assay with CD28, the “Fold Increase over WT CD80-IgV-Fc” value was 7.7 and the “Relative Luciferase Units (RLU), CD80-Fc Conc. 50 nM” value stood at 4336 RLU.

B4: H18Y/E35D/N48K (protein, UniProt P33681 35-288, looked up, variant H18Y E35D N48K)
T-lymphocyte activation …: VIHVTKEVKEVATLSCGYNVSVEELAQTRIYWQKDKKMVLTMMSGDMKIWPEYKNRTIFDITNNLSIVILALRPSDEGTYECVVLKYEKDAFKREHLAEVTLSVKADFPTPSISDFEIPTSNIRRIICSTSGGFPEPHLSWLENGEELNAINTTVSQDPETELYAVSSKLDFNMTTNHSFMCLIKYGHLRVNQTFNWNTTKQEHFPDNLLPSWAITLISVNGIFVICCLTYCFAPRCRERRRNERLRRESVRPV
As to B4, the “Relative Luciferase Units (RLU), CD80-Fe Cone 50 nM” value in the assay with CD28 (Table E8) stood at 1230 RLU.

B5: E35D/M47V/N48T/L85Q (protein, UniProt P33681 35-288, looked up, variant E35D M47V N48T L85Q)
T-lymphocyte activation …: VIHVTKEVKEVATLSCGHNVSVEELAQTRIYWQKDKKMVLTMMSGDVTIWPEYKNRTIFDITNNLSIVILALRPSDEGTYECVVQKYEKDAFKREHLAEVTLSVKADFPTPSISDFEIPTSNIRRIICSTSGGFPEPHLSWLENGEELNAINTTVSQDPETELYAVSSKLDFNMTTNHSFMCLIKYGHLRVNQTFNWNTTKQEHFPDNLLPSWAITLISVNGIFVICCLTYCFAPRCRERRRNERLRRESVRPV
For B5, in the assay with CD28 (Table E8), the “Fold Increase over WT CD80-IgV-Fe” value was determined as 4.4 and the “Relative Luciferase Units (RLU), CD80-Fe Cone 50 nM” value was 897 RLU.

B6: Q27H/E35D/D46V/M47L/A71G (protein, UniProt P33681 35-288, looked up, variant Q27H E35D D46V M47L A71G)
T-lymphocyte activation …: VIHVTKEVKEVATLSCGHNVSVEELAHTRIYWQKDKKMVLTMMSGVLNIWPEYKNRTIFDITNNLSIVILGLRPSDEGTYECVVLKYEKDAFKREHLAEVTLSVKADFPTPSISDFEIPTSNIRRIICSTSGGFPEPHLSWLENGEELNAINTTVSQDPETELYAVSSKLDFNMTTNHSFMCLIKYGHLRVNQTFNWNTTKQEHFPDNLLPSWAITLISVNGIFVICCLTYCFAPRCRERRRNERLRRESVRPV
For the molecule B6, in the assay with CD28 (Table E8), the “Relative Luciferase Units (RLU), CD80-Fe Cone 50 nM” value was 978 RLU.

B7: E35D/T41S/M47V/A71G/K89N (protein, UniProt P33681 35-288, looked up, variant E35D T41S M47V A71G K89N)
T-lymphocyte activation …: VIHVTKEVKEVATLSCGHNVSVEELAQTRIYWQKDKKMVLSMMSGDVNIWPEYKNRTIFDITNNLSIVILGLRPSDEGTYECVVLKYENDAFKREHLAEVTLSVKADFPTPSISDFEIPTSNIRRIICSTSGGFPEPHLSWLENGEELNAINTTVSQDPETELYAVSSKLDFNMTTNHSFMCLIKYGHLRVNQTFNWNTTKQEHFPDNLLPSWAITLISVNGIFVICCLTYCFAPRCRERRRNERLRRESVRPV
For the molecule B7, the “Relative Luciferase Units (RLU), CD80-Fe Cone 50 nM” value in the assay with CD28 (Table E8) turned out to be 1023 RLU.

B8: E35D/D46E/M47V/A71D (protein, UniProt P33681 35-288, looked up, variant E35D D46E M47V A71D)
T-lymphocyte activation …: VIHVTKEVKEVATLSCGHNVSVEELAQTRIYWQKDKKMVLTMMSGEVNIWPEYKNRTIFDITNNLSIVILDLRPSDEGTYECVVLKYEKDAFKREHLAEVTLSVKADFPTPSISDFEIPTSNIRRIICSTSGGFPEPHLSWLENGEELNAINTTVSQDPETELYAVSSKLDFNMTTNHSFMCLIKYGHLRVNQTFNWNTTKQEHFPDNLLPSWAITLISVNGIFVICCLTYCFAPRCRERRRNERLRRESVRPV
For the molecule B8, the “Relative Luciferase Units (RLU), CD80-Fe Cone 50 nM” value in the assay with CD28 (Table E8) is given as 683 RLU.

B9: R29V/M43Q/E81R/L85I/K89R/D90L/A91E/F92N/K93Q/R94G (protein)
chain: VIHVTKEVKEVATLSCGHNVSVEELAQTVIYWQKEKKMVLTMQSGDMNIWPEYKNRTIFDITNNLSIVILALRPSDEGTYRCVVIKYERLENQGEHLAEVTLSVKADFPTPSISDFEIPTSNIRRIICSTSGGFPEPHLSWLENGEELNAINTTVSQDPETELYAVSSKLDFNMTTNHSFMCLIKYGHLRVNQTFNWNTTKQEHFPDN
For the molecule B9, the “MLR IFN-gamma levels” value in the assay on allogeneic CD4+ T cells worked out at 11695 pg/mL. Moreover, in the assay on human pan T cells, the “Coimmobilization with anti-CD3 IFN-gamma” value was found to be 342 pg/mL.

B10: E88D/K89R/D90K/A91G/F92Y/K93R (protein)
chain: VIHVTKEVKEVATLSCGHNVSVEELAQTRIYWQKEKKMVLTMMSGDMNIWPEYKNRTIFDITNNLSIVILALRPSDEGTYECVVLKYDRKGYRREHLAEVTLSVKAD
modifications: CD80 v48 IgV
For B10, in the assay with allogeneic CD4+ T cells, the “MLR IFN-gamma levels” value is 9356 pg/mL and 5922 pg/mL. Moreover, in the assay on human pan T cells, the “Coimmobilization with anti-CD3 IFN-gamma” value was 1125 pg/mL and 944 pg/mL.

B11: E88D/K89R/D90K/A91G/F92Y/K93R/N122S/N177S (protein)
chain: VIHVTKEVKEVATLSCGHNVSVEELAQTRIYWQKEKKMVLTMMSGDMNIWPEYKNRTIFDITNNLSIVILALRPSDEGTYECVVLKYDRKGYRREHLAEVTLSVKADFPTPSISDFEIPTSSIRRIICSTSGGFPEPHLSWLENGEELNAINTTVSQDPETELYAVSSKLDFNMTTSHSFMCLIKYGHLRVNQTFNWNTTKQEHFPDN
In the case of B11, the “MLR IFN-gamma levels” value with allogeneic CD4+ T cells stood at 6345 pg/mL. In addition, the “Coimmobilization with anti-CD3 IFN-gamma” value with human pan T cells was 773 pg/mL.

B12: V22D/E35D/M47L/L70M/L97Q (protein)
chain: VIHVTKEVKEVATLSCGHNVSDEELAQTRIYWQKDKKMVLTMMSGDLNIWPEYKNRTIFDITNNLSIVIMALRPSDEGTYECVVLKYEKDAFKREHQAEVTLSVKADFPTPSISDFETPTSNIRRIICSTSGGFPEPHLSWLENGEELNAINTTVSQDPETELYAVSSKLDFNMTTNHSFMCLIKYGHLRVNQTFNWNTTKQEHFPDN
modifications: CD80 v283 ECD
As for B12, the “Relative Luciferase Units (RLU), CD80-Fe Cone 50 nM” value with CD28 (Table E8) was 1542 RLU.

B13: K36G/L40M (protein)
chain: VIHVTKEVKEVATLSCGHNVSVEELAQTRIYWQKEGKMVMTMMSGDMNIWPEYKNRTIFDITNNLSIVILALRPSDEGTYECVVLKYEKDAFKREHLAEVTLSVKADFPTPSISDFEIPTSNIRRIICSTSGGFPEPHLSWLENGEELNAINTTVSQDPETELYAVSSKLDFNMTTNHSFMCLIKYGHLRVNQTFNWNTTKQEHFPDN
On to B13, for which the “MLR IFN-gamma levels” value in the assay with allogeneic CD4+ T cells was found to be 30558 pg/mL. Also, the “Coimmobilization with anti-CD3 IFN-gamma” value with human pan T cells came out at 699 pg/mL.

B14: T41I/A91G (protein)
chain: VIHVTKEVKEVATLSCGHNVSVEELAQTRIYWQKEKKMVLIMMSGDMNIWPEYKNRTIFDITNNLSIVILALRPSDEGTYECVVLKYEKDGFKREHLAEVTLSVKADFPTPSISDFEIPTSNIRRIICSTSGGFPEPHLSWLENGEELNAINTTVSQDPETELYAVSSKLDFNMTTNHSFMCLIKYGHLRVNQTFNWNTTKQEHFPDN
modifications: CD80 v44 ECD
For the molecule B14, the “MLR IFN-gamma levels” value with allogeneic CD4+ T cells came to 26052 pg/mL. The “Coimmobilization with anti-CD3 IFN-gamma” value with human pan T cells came out at 433 pg/mL.

B15: K36G/K37Q/M38I/L40M (protein)
chain: VIHVTKEVKEVATLSCGHNVSVEELAQTRIYWQKEGQIVMTMMSGDMNIWPEYKNRTIFDITNNLSIVILALRPSDEGTYECVVLKYEKDAFKREHLAEVTLSVKADFPTPSISDFEIPTSNIRRIICSTSGGFPEPHLSWLENGEELNAINTTVSQDPETELYAVSSKLDFNMTTNHSFMCLIKYGHLRVNQTFNWNTTKQEHFPDN
modifications: CD80 v49 ECD
Take B15: the “MLR IFN-gamma levels” value in the assay on allogeneic CD4+ T cells amounted to 811 pg/mL. For the same molecule, the “Coimmobilization with anti-CD3 IFN-gamma” value with human pan T cells amounted to 427 pg/mL.
